Holding throughout (test): SEC
A general note: SEC sorts molecules by how far they enter the pores of the column.

The target in assay [1] is BM48-31 soluble spike ectodomain, stabilised (2P, GSAS linker, T4 fibritin trimerization motif) (bat sarbecovirus BM48-31 | bacteriophage T4).
In assay [2] the target is Yun11 soluble spike ectodomain, stabilised (2P, GSAS linker, T4 fibritin trimerization motif) (sarbecovirus Yun11 | bacteriophage T4).
Assay [3] concerns the target Pang17 soluble spike ectodomain, stabilised (2P, GSAS linker, T4 fibritin trimerization motif) (pangolin sarbecovirus pang17 | bacteriophage T4).
Assay [4] addresses RmYN02 soluble spike ectodomain, stabilised (2P, GSAS linker, T4 fibritin trimerization motif) (bat sarbecovirus RmYN02 | bacteriophage T4).
Assay [5] concerns the target WIV1 soluble spike ectodomain, stabilised (2P, GSAS linker, T4 fibritin trimerization motif) (bat sarbecovirus WIV1 | bacteriophage T4) (UniProt U5WI05).
Assay [6] has as its target Rs4081 soluble spike ectodomain, stabilised (2P, GSAS linker, T4 fibritin trimerization motif) (bat sarbecovirus RS4081 | bacteriophage T4).
In assay [7] the target is BtKY72 soluble spike ectodomain, stabilised (2P, GSAS linker, T4 fibritin trimerization motif) (bat sarbecovirus BtKY72 | bacteriophage T4).
In assay [8] the target is RaTG13 soluble spike ectodomain, stabilised (2P, GSAS linker, T4 fibritin trimerization motif) (bat sarbecovirus RaTG13 | bacteriophage T4).
In assay [9] the target is RsSHC014 soluble spike ectodomain, stabilised (2P, GSAS linker, T4 fibritin trimerization motif) (bat sarbecovirus RsSHC014 | bacteriophage T4) (UniProt U5WLK5).

On to “BM48-31 soluble spike ectodomain, stabilised (2P, GSAS linker, T4 fibritin trimerization motif) (domain or fragment)”, for which the stoichiometry N (usually a count of units in the complex or per binding partner) in assay [1] came to 3.

Substance “Yun11 soluble spike ectodomain, stabilised (2P, GSAS linker, T4 fibritin trimerization motif) (domain or fragment)” showed a stoichiometry N in [2] of 3.

Regarding “Pang17 soluble spike ectodomain, stabilised (2P, GSAS linker, T4 fibritin trimerization motif) (domain or fragment)”, in assay [3], the stoichiometry N was determined as 3.

In turn, “RmYN02 soluble spike ectodomain, stabilised (2P, GSAS linker, T4 fibritin trimerization motif) (domain or fragment)” yielded a stoichiometry N in assay [4] of 3.

In turn, “WIV1 soluble spike ectodomain, stabilised (2P, GSAS linker, T4 fibritin trimerization motif) (from UniProt U5WI05 1-1191) (domain or fragment)” displayed a stoichiometry N in [5] of 3.

Regarding “Rs4081 soluble spike ectodomain, stabilised (2P, GSAS linker, T4 fibritin trimerization motif) (domain or fragment)”, the stoichiometry N in assay [6] came to 3.

In [7], “BtKY72 soluble spike ectodomain, stabilised (2P, GSAS linker, T4 fibritin trimerization motif) (domain or fragment)” gave a stoichiometry N of 3.

With “RaTG13 soluble spike ectodomain, stabilised (2P, GSAS linker, T4 fibritin trimerization motif) (domain or fragment)”, the stoichiometry N in [8] came to 3.

In turn, “RsSHC014 soluble spike ectodomain, stabilised (2P, GSAS linker, T4 fibritin trimerization motif) (from UniProt U5WLK5 1-1191) (domain or fragment)” yielded a stoichiometry N in assay [9] of 3.

Values taken from publication PMC10015101.
